Experimental data from US10350264B2, “Compositions and methods for modulating NCOA4-mediated autophagic targeting of ferritin” (Dana-Farber Cancer Institute, Inc., priority 2014, dated 2019).
Values belong to the molecule of their own block, whether it stands above or below them. Ends that are not written are not given here.

Columns and labels:
[1] = target: T1, ferritin purified from horse spleen (mixture of FTH1 and FTL subunits) (Equus caballus, UniProt Q8MIP0); experiment: anti-MYC immunoprecipitation of in vitro translated MYC-NCOA4 constructs incubated with ferritin; type: binding; conditions: anti-MYC IP, anti-FTH1 immunoblot, FIG. 5
T1 construct: ferritin purified from horse spleen; purchased Sigma A3641-100 mg; host or cells: horse spleen
T1 sequence (Q8MIP0 whole entry): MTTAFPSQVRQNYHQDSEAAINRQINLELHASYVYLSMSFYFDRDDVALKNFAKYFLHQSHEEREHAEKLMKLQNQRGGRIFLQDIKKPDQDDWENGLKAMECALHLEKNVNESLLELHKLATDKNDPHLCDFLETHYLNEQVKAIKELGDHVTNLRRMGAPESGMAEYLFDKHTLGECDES
T1 sequence (P02791 2-175 partner limits assumed): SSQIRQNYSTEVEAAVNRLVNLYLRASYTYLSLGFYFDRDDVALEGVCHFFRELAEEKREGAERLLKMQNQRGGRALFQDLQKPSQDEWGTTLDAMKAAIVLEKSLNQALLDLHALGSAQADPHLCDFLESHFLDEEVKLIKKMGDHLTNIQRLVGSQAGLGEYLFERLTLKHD
Method: To probe the interaction between ferritin and NCOA4, initial binding assays using MYC-tagged NCOA4 full-length and truncation constructs produced using an in vitro translation (“IVT”) system were conducted. MYC-NCOA4 fragments were cloned using PCR into a modified T7 cell-free expression vector (pT7CFE1-NMyc, #88863, Thermo Scientific). 1-Step Human Coupled IVT Kit—DNA from Thermo Scientific (product #88881) was used to produce MYC-tagged NCOA4 constructs as described in the product manual. Apoferritin (Sigma, A3641-100 mg) was added in a pull-down assay using anti-c-Myc Agarose Affinity Gel antibody produced in rabbit (Sigma, A7470-1 ML). Affinity purification reactions were washed thoroughly with 150 mM NaCl, 20 mM Tris (pH 7.4), and 2 mM dithiothreitol. Proteins were eluted with SDS sample buffer and analyzed by 4-20% gradient SDS-PAGE and immunoblotting with anti-FTH1 antibody (Cell Signaling 3998; Western blot 1:1,000) or anti-MYC antibody (Santa Cruz Sc-40; western blot 1:1,000).
The full-length, N-terminal (amino acids (aa) 1-245 of SEQ ID NO: 4) and C-terminal (aa 235-614 of SEQ ID NO:4) MYC-NCOA4 were incubated with ferritin purified from horse spleen (Apoferritin (Sigma, A3641-100 mg), consisting of a mixture of FTH1 and FTL subunits) and anti-MYC immunoprecipitation was performed followed by immunoblotting as described above.

[2] = target: T2, apo-ferritin purified from equine spleen (Equus caballus, UniProt Q8MIP0); experiment: GST pull-down assay of ferritin using GST-NCOA4 fragments; type: binding; conditions: anti-FTH1 immunoblot, FIGS. 7, 8, 11
T2 construct: apo-ferritin purified from equine spleen; purchased Sigma F4503; host or cells: equine spleen
T2 sequence (Q8MIP0 whole entry, the tested form may be a part): as the sequence (Q8MIP0 whole entry) above
T2 sequence (P02791 2-175 partner limits assumed): as the sequence (P02791 2-175 partner limits assumed) above
Description: GST-tagged NCOA4 constructs were also made to probe the interactions of C-terminal portions of NCOA4 with ferritin. NCOA4-truncation constructs were produced using Gateway cloning (Invitrogen, Life Technologies, catalog #11789-013 and 11791-019) into a pDEST60 N-terminal GST fusion plasmid (GST-NCOA4) from EMD Millipore (Gateway Nova pET-60-DEST, product #71851-3) and transformed in E. coli BL21 (DE3) cells (New England Biosciences, C2527I).
NCOA4 truncation constructs were designed based on NCBI reference sequence: NP_001138735.1 (SEQ ID NO: 4). In particular, fragments of SEQ ID NO: 4 consisting of amino acids (aa) 1-245, aa 235-614, aa 235-560, aa 235-401, aa 383-560, aa 545-614, aa 383-522, aa 510-560, aa 383-436, aa 436-485, aa 475-522, aa 475-500, aa 480-500, aa 480-504, aa 485-509, aa 490-514, aa 495-522 were designed. Protein expression in the DE3 cells was induced with 1 mM isopropyl-beta-D-thiogalactopyranoside (IPTG) (Sigma, I6758-10 G) for 3 hours at 37° C. Cells were collected by centrifugation, re-suspended in 25 mM Tris-HCl (pH 7.4), 10% (w/v) sucrose and lysed with a single freeze-thaw cycle followed by sonication. After centrifugation, a GST pull-down assay was performed.
In the GST pull-down assay, lysates were incubated with 10 μl of a 50% (v/v) slurry of glutathione Sepharose 4B beads (GE Healthcare Lifesciences, 17-0756-01) for 30 minutes at 4° C. Beads were washed thoroughly with 150 mM NaCl, 20 mM Tris (pH 7.4), 2 mM dithiothreitol (DTT), 0.5% (w/v) Nonidet P-40, leaving 50-100 μg of GST-fusion protein bound to the beads. Beads were then mixed with 0.5-2 μg of apo-ferritin purified from equine spleen (Sigma F4503) or recombinant human FTH1 or FTL produced in Rosetta E. coli (EMD Millipore, 70953-3). The assay mix was incubated for 2 hours at 4° C., and beads were washed four times with 1 ml wash buffer. Proteins were eluted with SDS sample buffer and analyzed by 4-20% gradient SDS-PAGE and immunoblotting with anti-FTH1 antibody (as above) or anti-FLAG antibody (Sigma, F1804-200 UG). Pounceau stain was used to visualize GST-NCOA4 bands. (Pounceau, Sigma, P7170-1 L, protocol as per product manual).

8988T cells = experiment: NCOA4 protein levels while blocking autophagic flux (immunoblot); type: cell-based, human; conditions: CQ or BAF 8 hours, FIG. 2(c)
[3] = target: T3, HERC2-FLAG fragment (F3, HERC2 amino acids 1700-2700) (Homo sapiens, UniProt O95714); experiment: GST pull-down assay of HERC2-FLAG Fragment 3 using GST-NCOA4 fragments; type: binding; conditions: 293T lysate expressing HERC2-FLAG F3, anti-FLAG immunoblot; FIG. 12
T3 construct: HERC2-FLAG fragment (F3, HERC2 amino acids 1700-2700) was produced as described in Bekker-Jensen et al; expressed in transfected cells; host or cells: 293T cells (transient transfection, lysate used)
T3 sequence (O95714 1700-2700): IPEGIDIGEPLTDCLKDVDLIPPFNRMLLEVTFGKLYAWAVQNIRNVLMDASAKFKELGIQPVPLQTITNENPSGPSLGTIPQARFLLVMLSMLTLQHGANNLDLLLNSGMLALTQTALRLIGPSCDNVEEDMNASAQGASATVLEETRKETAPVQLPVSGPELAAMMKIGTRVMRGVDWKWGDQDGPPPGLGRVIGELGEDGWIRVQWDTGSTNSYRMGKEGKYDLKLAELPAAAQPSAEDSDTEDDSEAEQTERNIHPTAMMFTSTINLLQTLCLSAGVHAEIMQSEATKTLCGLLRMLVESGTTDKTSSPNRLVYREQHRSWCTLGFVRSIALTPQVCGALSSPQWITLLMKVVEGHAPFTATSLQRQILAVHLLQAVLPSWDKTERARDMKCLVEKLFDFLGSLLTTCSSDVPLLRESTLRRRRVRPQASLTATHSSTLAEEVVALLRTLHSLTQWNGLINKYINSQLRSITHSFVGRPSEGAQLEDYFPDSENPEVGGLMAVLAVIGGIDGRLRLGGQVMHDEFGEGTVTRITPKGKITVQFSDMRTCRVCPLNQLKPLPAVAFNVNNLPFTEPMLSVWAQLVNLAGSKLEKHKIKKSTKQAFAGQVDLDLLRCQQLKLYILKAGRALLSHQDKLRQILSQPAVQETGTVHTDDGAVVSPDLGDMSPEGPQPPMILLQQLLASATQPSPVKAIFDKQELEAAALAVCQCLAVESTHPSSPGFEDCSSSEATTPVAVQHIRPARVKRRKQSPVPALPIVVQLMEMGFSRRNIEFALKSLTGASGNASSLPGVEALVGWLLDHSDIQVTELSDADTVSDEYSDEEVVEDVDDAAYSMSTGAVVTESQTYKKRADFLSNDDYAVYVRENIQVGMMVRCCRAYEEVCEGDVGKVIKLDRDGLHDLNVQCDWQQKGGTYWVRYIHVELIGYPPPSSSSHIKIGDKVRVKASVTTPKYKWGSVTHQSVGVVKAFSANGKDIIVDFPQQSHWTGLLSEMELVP
Method: To map the interaction of NCOA-4 with HERC2, the GST-NCOA4 truncation constructs described above were also tested in a GST pull-down assay with HERC2-FLAG expressing 293T cell line. HERC2-FLAG fragment (F3, HERC2 amino acids 1700-2700) was produced as described in Bekker-Jensen et al., Nature Cell Biology (2010) 12; 80-86. The HERC2-FLAG F3 was transiently transfected into 293T cells using standard transfection procedures using PEI (Polysciences, #23966-2).
Lysates were obtained, as above, and incubated with 10 μl of a 50% (v/v) slurry of glutathione Sepharose 4B beads for 30 minutes at 4° C. Beads were washed thoroughly with 150 mM NaCl, 20 mM Tris (pH 7.4), 2 mM DTT, 0.5% (w/v) Nonidet P-40, leaving 50-100 μg of GST-fusion protein bound to the beads. Beads were then mixed with 300 μg of lysate from a HERC2-FLAG expressing 293T cell line, as above. The assay mix was incubated for 2 hours at 4° C., and beads were washed four times with 1 ml wash buffer. Proteins were eluted with SDS sample buffer and analyzed by 4-20% gradient SDS-PAGE and immunoblotting with anti-HERC2 antibody or anti-FLAG antibody, as above. Coomassie stain was used to visualize GST-NCOA4 bands as above.

Molecule: aa 555-614: printed as C-terminal MYC-NCOA4; probably only the C-terminal part of NCOA4B ({MYC tag}-GEDKWLLRKKAQEVLLNSPLQEEHNFPPDHYGLPAVCDLFACMQLKVDKEKWLYRTPLQM; cysteine pairing not given here)
- association of MYC-NCOA4 construct with ferritin [1]: associated with ferritin

Molecule: CO/C1=C\C(C)=C\[C@@H](C)[C@@H](O)[C@@H](C)C/C(C)=C/C=C/[C@H](OC)[C@@H]([C@@H](C)[C@@H](O)[C@H](C)[C@@]2(O)C[C@@H](O)[C@H](C)[C@@H](C(C)C)O2)OC1=O [Bafilomycin A1 (BAF), Bafilomycin A1]
- NCOA4 protein levels (8988T cells): markedly increased

Molecule: SMVTEDWLVQNHQDPCKVEEVCRANEPCTSFAECVCDENCEKEALYKWLLKKEG (Homo sapien) [aa 383-436]
- binding of GST-NCOA4 fragment to HERC2-FLAG [3]: bound to HERC2-FLAG

B2: aa 383-560: fragment of NCOA4 SEQ ID NO: 4 (protein)
chain: SMVTEDWLVQNHQDPCKVEEVCRANEPCTSFAECVCDENCEKEALYKWLLKKEGKDKNGMPVEPKPEPEKHKDSLNMWLCPRKEVIEQTKAPKAMTPSRIADSFQVIKNSPLSEWLIRPPYKEGSPKEVPGTEDRAGKQKFKSPMNTSWCSFNTADWVLPGKKMGNLSQLSSGEDKWL
modifications: Homo sapien
- binding of GST-NCOA4 fragment to HERC2-FLAG [3]: binds to HERC2 fragment
- binding of GST-NCOA4 fragment to ferritin [2]: bound to ferritin

B4: aa 235-560: fragment of NCOA4 SEQ ID NO: 4 (protein)
chain: ENSQTSSRACNFFNNVGGNLKGLENWLLKSEKSSYQKCNSHSTTSSFSIEMEKVGDQELPDQDEMDLSDWLVTPQESHKLRKPENGSRETSEKFKLLFQSYNVNDWLVKTDSCTNCQGNQPKGVEIENLGNLKCLNDHLEAKKPLSTPSMVTEDWLVQNHQDPCKVEEVCRANEPCTSFAECVCDENCEKEALYKWLLKKEGKDKNGMPVEPKPEPEKHKDSLNMWLCPRKEVIEQTKAPKAMTPSRIADSFQVIKNSPLSEWLIRPPYKEGSPKEVPGTEDRAGKQKFKSPMNTSWCSFNTADWVLPGKKMGNLSQLSSGEDKWL
modifications: Homo sapien
- binding of GST-NCOA4 fragment to ferritin [2]: bound to ferritin

Second part, the molecule after the results:

- binding of GST-NCOA4 fragment to ferritin [2]: bound to ferritin
Molecule: SFQVIKNSPLSEWLIRPPYKEGSPK (Homo sapien) [aa 485-509]

- association of MYC-NCOA4 construct with ferritin [1]: associated with ferritin
- association of MYC-NCOA4 construct with ferritin ([1]; listed as Full-length NCOA4): bind to ferritin
Molecule: aa 1-614: full-length human NCOA4 (NP_001138735.1), in vitro translated

- association of MYC-NCOA4 construct with ferritin [1]: did not bind ferritin
B1: NCOAB: naturally occurring transcript variant of NCOA4 consisting of amino acids 1-238 and 555-614 (protein)
chain: MNTFQDQSGSSSNREPLLRCSDARRDLELAIGGVLRAEQQIKDNLREVKAQIHSCISRHLECLRSREVWLYEQVDLIYQLKEETLQQQAQQLYSLLGQFNCLTHQLECTQNKDLANQVSVCLERLGSLTLKPEDSTVLLFEADTITLRQTITTFGSLKTIQIPEHLMAHASSANIGPFLEKRGCISMPEQKSASGIVAVPFSEWLLGSKPASGYQAPYIPSTDPQDWLTQKQTLENSQGEDKWLLRKKAQEVLLNSPLQEEHNFPPDHYGLPAVCDLFACMQLKVDKEKWLYRTPLQM
modifications: left off: small tags and cut ends

- association of MYC-NCOA4 construct with ferritin [1]: did not associate with ferritin
B3: N-terminal MYC-NCOA4: NCOA4 N-terminal fragment, amino acids 1-245 of SEQ ID NO: 4 (protein)
chain: MNTFQDQSGSSSNREPLLRCSDARRDLELAIGGVLRAEQQIKDNLREVKAQIHSCISRHLECLRSREVWLYEQVDLIYQLKEETLQQQAQQLYSLLGQFNCLTHQLECTQNKDLANQVSVCLERLGSLTLKPEDSTVLLFEADTITLRQTITTFGSLKTIQIPEHLMAHASSANIGPFLEKRGCISMPEQKSASGIVAVPFSEWLLGSKPASGYQAPYIPSTDPQDWLTQKQTLENSQTSSRACN
modifications: N-terminal MYC tag; Homo sapien
